B1: 14 bp mepR site (dsDNA)
DNA 1: GTTAGACATCTAAC
DNA 2: GTTAGATGTCTAAC
B2: 24 bp palindromic mepR operator (dsDNA)
DNA 1: ATTTAGTTAGATATCTAACTAAAT
DNA 2: ATTTAGTTAGATATCTAACTAAAT
B3: 27 bp mepR, scrambled recognition helix region (dsDNA)
DNA 1: TATTTACTATGTGTATCTAGGAAATGG
DNA 2: CCATTTCCTAGATACACATAGTAAATA

Columns and labels:
MepR WT = molecular target: T1, MepR WT (Staphylococcus aureus, UniProt Q5Y812 1-139); assay: ITC
T1 sequence: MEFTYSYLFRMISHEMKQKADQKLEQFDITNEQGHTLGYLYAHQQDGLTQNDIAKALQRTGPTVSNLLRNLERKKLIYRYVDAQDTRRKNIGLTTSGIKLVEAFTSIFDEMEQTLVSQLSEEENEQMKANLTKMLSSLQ

MepR (crystallization) = molecular target: T2, MepR (crystallization) (Staphylococcus aureus, UniProt Q5Y812 1-139); assay: crystal structure
T2 sequence: T1 sequence

| Binder | binding result (MepR WT) | binding result (MepR (crystallization)) |
| --- | --- | --- |
| B1 | no binding |  |
| B2 |  | binds |
| B3 | no binding |  |
